Target: hBAFF-R-GFP fusion protein on mouse fibroblast L cells (clone D2C) (human) (UniProt Q96RJ3)
Test: cell ELISA of hybridoma supernatant, anti-mouse IgG-HRP; same clone on parental L cell: 0.102

B1: mouse mAb Clone 55 (hybridoma) (antibody, V domains shown)
VH: QVTLKESGPGILKPSQTLSLTCSFSGFSLSTSGMGVGWIRQPSGKGLEWLAHIWWDDDKYYNSSLKSHLTISKDTSRNQVFLKITSVDTADTATYYCARSFGYGLDYWGQGTTLTVSS
VL: DIQMTQTTSSLSASLGDRVTISCSASQDISNYLNWYQQKPDGTVKLLIYYTSSLHSGVPSRFSGSGSGTDYSLTISSLEPEDIATYYCHQFSELPWTFGGGTKLEIKR
OD 450 nm on (h)BAFF-R-expressing cells: 1.07 OD 450 nm

Reference: patent US20200190204A1
